The values below come from publication PMC8024323, “Drosophila TNFRs Grindelwald and Wengen bind Eiger with different affinities and promote distinct cellular functions” (Nature Communications, 2021).

What is called Kd is the equilibrium constant for the complex coming apart. A low value points to tighter binding. Broadly, the stoichiometry N is a count of units in the complex or per binding partner.

The labels stand for the following.
B1: Grnd^30–97 (extracellular domain of Grindelwald) (domain or fragment, Drosophila melanogaster, UniProt Q9VJ83 30-97, looked up)
chain: GESRDCHGTICHPVNEFCYVATERCHPCIEVCNNQTHNYDAFLCAKECSAYKTFEPLKAEMLDIQNTQ
notes: Grindelwald (Grnd), Drosophila melanogaster, extracellular domain, residues 30-97; pETM14 vector; His6-tag removed with PreScission protease; Monomer by static light scattering; also called wild-type Grnd^30–97; source: E. coli SHuffle B cells (NEB), purified (Ni HiTrap, PreScission, Resource-Q); not shown: His6, N-terminal, cleaved
B2: Grnd^30–97 His66Ala (domain or fragment, Drosophila melanogaster, UniProt Q9VJ83 30-97, looked up)
chain: B1 chain with H37A
notes: Grindelwald (Grnd), Drosophila melanogaster, extracellular domain, residues 30-97; also called His66Ala^Grnd; Grnd-His66Ala; source: E. coli SHuffle B cells, purified (as Grnd^30–97); mutation by QuikChange; not shown: His6, N-terminal, cleaved
B3: Grnd^30–97 Glu52Ala (domain or fragment, Drosophila melanogaster, UniProt Q9VJ83 30-97, looked up)
chain: B1 chain with E23A
notes: Grindelwald (Grnd), Drosophila melanogaster, extracellular domain, residues 30-97; also called Glu52Ala^Grnd; Grnd-Glu52Ala; source: E. coli SHuffle B cells, purified (as Grnd^30–97); mutation by QuikChange; not shown: His6, N-terminal, cleaved
B4: Grnd^30–97 Asn67Ala (domain or fragment, Drosophila melanogaster, UniProt Q9VJ83 30-97, looked up)
chain: B1 chain with N38A
notes: Grindelwald (Grnd), Drosophila melanogaster, extracellular domain, residues 30-97; also called Asn67Ala^Grnd; Grnd-Asn67Ala; source: E. coli SHuffle B cells, purified (as Grnd^30–97); mutation by QuikChange; not shown: His6, N-terminal, cleaved
B5: Grnd^30–81 (tryptic fragment of the extracellular domain of Grindelwald) (domain or fragment, Drosophila melanogaster, UniProt Q9VJ83 30-81, looked up)
chain: GESRDCHGTICHPVNEFCYVATERCHPCIEVCNNQTHNYDAFLCAKECSAYK
notes: Grindelwald (Grnd), Drosophila melanogaster, residues 30-81; limits assigned by mass spectrometry; models hold residues 34-81 (free) and 31-81 (complex); also called Grnd-ECD; Grnd-CRD
B6: Egr^269–409 (TNF-homology domain of Eiger, tryptic fragment) (domain or fragment, Drosophila melanogaster, UniProt Q8MUJ1-2 269-409, looked up)
chain: DSRPAAHFHLSSRRRHQGSMGYHGDMYIGNDNERNSYQGHFQTRDGVLTVTNTGLYYVYAQICYNNSHDQNGFIVFQGDTPFLQCLNTVPTNMPHKVHTCHTSGLIHLERNERIHLKDIHNDRNAVLREGNNRSYFGIFKV
notes: Trimer in the crystal (threefold crystallographic symmetry); also called Egr-TNF; TNF domain of Egr
B7: Egr^146–409 (extracellular portion of Eiger, His6-tagged) (domain or fragment, Drosophila melanogaster, UniProt Q8MUJ1-2 146-409, looked up)
chain: GADYEDYTDMLNKLNNAHTGTTPTSETTAEGEGETDSASSASNDDNVFDDFTSYNAHKKKQERKSRSIADVRNEEQNIQGNHTELQEKSSNEATSKESPAPLHHRRRMHSRHRHLLVRKARSEDSRPAAHFHLSSRRRHQGSMGYHGDMYIGNDNERNSYQGHFQTRDGVLTVTNTGLYYVYAQICYNNSHDQNGFIVFQGDTPFLQCLNTVPTNMPHKVHTCHTSGLIHLERNERIHLKDIHNDRNAVLREGNNRSYFGIFKV
notes: Cloned in a pET43 vector; Trimer by static light scattering; also called Egr/TNF; Egr extracellular domain; source: E. coli SHuffle cells, purified (HiTrap chelating Ni column, Superdex-200 SEC)

Changes are numbered by the printed parent chain.

Data set [1] has as its target Egr^146–409 (extracellular portion of Eiger, His6-tagged) (Drosophila melanogaster) (UniProt Q8MUJ1). Description: ITC; MicroCal PEAQ-ITC, 25 °C, 0.02 M Tris-HCl pH 8.0, 0.3 M NaCl; Grnd^30–97 at 100–340 μM titrated into 8 μM Egr^146–409; Wgn^78–201 at 4.5 mM titrated into 410 μM Egr^146–409; single-site fit.
In data set [2] the target is B7. The description is as above. Conditions: both partners purified.
Data set [3] concerns the target T1, Strep-Egr^146–409 Asn333Ala (Drosophila melanogaster, UniProt Q8MUJ1-2 146-409, Asn333 with Ala).
T1 construct: also called substitution of the Egr glycosylation site Asn333 with Ala; source: mutation by QuikChange
T1 sequence (looked up): B7 chain with N188A
Kind of data set: pull-down; 2 μM strep-tagged Egr^146–409 adsorbed on Strep-tactin beads, 10 μM Grnd^30–97 in solution, 1 h at 4 °C, 0.01 M Hepes pH 7.5, 0.1 M NaCl, 5% glycerol, 0.05% Tween, 0.5 mM EDTA; Coomassie staining. Conditions: both partners purified.

The next data set concerns the target T2, Strep-Egr^146–409 (Drosophila melanogaster, UniProt Q8MUJ1-2 146-409).
T2 construct: probably SHuffle cells as for the His6 construct
T2 sequence (looked up): B7 chain
Described as above. Particulars: both partners purified.

The target in data set [4] is B6. Description: SEC; 30 μM Egr^146–409 incubated with Grnd^30–97 in a 1:1.3 molar ratio, treated with trypsin, loaded on a Superdex-5/150 column; fractions on Coomassie SDS-PAGE. Conditions: both partners purified.
Data set [5] concerns the molecule itself. Kind of data set: crystal structure; Egr^269–409:Grnd^30–81 complex, 2.02 Å, space group P321, one 1:1 complex per asymmetric unit, 3:3 hetero-hexamer by the crystallographic threefold axis.
In the next data set the target is T3, Grnd^30–97 Glu52Ala (Drosophila melanogaster, UniProt Q9VJ83 30-97, Glu52Ala).
T3 sequence: B1 chain with E23A
Kind of data set: ITC. (In general: In ITC the heat of successive injections is recorded.)

The target of the next data set is T4, Grnd^30–97 His66Ala (Drosophila melanogaster, UniProt Q9VJ83 30-97, His66Ala).
T4 sequence: B1 chain with H37A
Description: ITC.

For a further data set, the target named is T5, Grnd^30–97 Asn67Ala (Drosophila melanogaster, UniProt Q9VJ83 30-97, Asn67Ala).
T5 sequence: B1 chain with N38A
Kind of data set: ITC.

Data set [6] deals with the molecule itself. Description: SEC-MALS; static light scattering, Viscotek GPCmax/TDA with a Superdex 200-10/300 increase column, 0.02 M Tris-HCl pH 8.0, 0.3 M NaCl, 5% glycerol; about 75 μL at about 2 mg/mL (Egr alone and the two complexes). (SEC sorts molecules by how far they enter the pores of the column.)

On to “Wgn^78–201 (whole extracellular domain of Wengen) (from UniProt Q9VWS4 78-201) (domain or fragment)”, for which the Kd in [1] stood at 12 µM.
In data set [2], B1 gave a Kd of approximately 0.03 µM. Also, the binding result in data set [3] is “binds”.
With B2, the binding result (in [2]; with Strep-Egr^146–409) was “binds” throughout.
With B3, the binding result (in data set [2]; in the data set with Strep-Egr^146–409) was “binds” in each case.
B4: the binding result (in [2]; in the data set with Strep-Egr^146–409) was “binds” in each case.
Turning to B5, the binding result in data set [4] was “binds”.
As for B6, in data set [5], the “stoichiometry N” value is 3.
As for B7, the Kd with Grnd^30–97 Glu52Ala came out at 1.3 µM; in the data set with Grnd^30–97 His66Ala, 4.8 µM; in the data set with Grnd^30–97 Asn67Ala, 4.5 µM. Besides, the “stoichiometry N” value in data set [6] worked out at 3.
